Results: publication PMC10865538 (BMC Infectious Diseases, 2024)

Molecular target: T1, recombinant wild-type RBD-Fc (Sino Biological, 40,592-V02H) (SARS-CoV-2, UniProt P0DTC2)
T1 construct: also called Fc-tagged SARS-CoV-2 RBD; source: bought: Sino Biological
Test: BLI
Conditions: both partners purified

B1: sdAb39 (VHH)
VHH: EVQLVESGGGLVQPGGSLRLSCAASGNTSTRHPMSWVRQAPGKGLELVASIGRGEITYYADSVKGRFTISRDNSKNTLYLQMNSLRAEDTAVYYCAAFVDFLSRHNSRRPYPHGYWGQGTLVTVSS
Work on B1 yielded a Kd of 56 nM.
